The assay has as its target papain (UniProt P00784). Description: enzyme inhibition kinetics (papain proteolysis progress curves); anti-papain activity from papain proteolysis progress curves with the fluorigenic substrate Z-Phe-Arg-methylcoumarin; apparent (said of the Cysta-tag's constant).

Two substances from paper PMC4753422 can be followed below.

UniProt P00784, sequence (P00784 134-345): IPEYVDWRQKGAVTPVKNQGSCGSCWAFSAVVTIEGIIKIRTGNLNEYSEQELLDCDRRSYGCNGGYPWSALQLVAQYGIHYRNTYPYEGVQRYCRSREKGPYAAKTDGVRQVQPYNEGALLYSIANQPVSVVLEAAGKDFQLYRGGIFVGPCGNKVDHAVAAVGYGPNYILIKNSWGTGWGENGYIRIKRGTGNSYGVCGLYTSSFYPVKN

For the substance “tomato multicystatin domain SlCYS8 (domain or fragment)”, the Kd came out at 43 nM.
The value for “Cysta-tag (Ala-62-(His)6-Gly-63 variant of SlCYS8) (domain or fragment)” was 42 nM.
